Laboratory results reported in PMC3884763.

Biological target: Cavernularia obesa green fluorescent protein (CoGFP), wild-type, with a histidine tag at the N-terminus (Cavernularia obesa)
Test: SEC

## Cavernularia obesa green fluorescent protein (CoGFP), wild-type, with a histidine tag at the N-terminus (natural protein)
  stoichiometry N: 2
